Molecular target: human TREM2 Ig domain (aa 19-134), wild type, biotinylated on a BirA tag (human) (UniProt Q9NZC2)
Assay: BLI

Sequence of human TREM2 Ig domain (aa 19-134), wild type, biotinylated on a BirA tag (human) (Q9NZC2 19-134): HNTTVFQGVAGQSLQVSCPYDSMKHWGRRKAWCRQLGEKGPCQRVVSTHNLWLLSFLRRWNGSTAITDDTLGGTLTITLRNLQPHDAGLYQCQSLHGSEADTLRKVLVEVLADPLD

Work on “ApoE3 1-238 (C-term deletion) (domain or fragment)” yielded a Kd of 696 nM.

Reference: PMC8026773
